{"source": "patent US20120220489A1", "key": {"[1]": {"biological_target": "ERK1 (p42) active (phospho), human, Active Motif 31 152 (human) (UniProt P27361)", "test": "RPA, competition: +free H3 peptide 1000 nM"}, "[2]": {"biological_target": "ERK1 (p44) inactive (GST tagged), human, Invitrogen PV 3312 (human) (UniProt P27361)", "test": "RPA, competition: +free H3 peptide 1000 nM"}, "[3]": {"biological_target": "Histone H3 recombinant protein, human, Upstate 14-494 (human) (UniProt P68431)", "test": "RPA, competition: +free H3 peptide 1000 nM"}, "[4]": {"biological_target": "Histone H3-BSA 2.7x peptide-protein conjugate (bovine)", "sequence (P02769 25-607 limits assumed)": "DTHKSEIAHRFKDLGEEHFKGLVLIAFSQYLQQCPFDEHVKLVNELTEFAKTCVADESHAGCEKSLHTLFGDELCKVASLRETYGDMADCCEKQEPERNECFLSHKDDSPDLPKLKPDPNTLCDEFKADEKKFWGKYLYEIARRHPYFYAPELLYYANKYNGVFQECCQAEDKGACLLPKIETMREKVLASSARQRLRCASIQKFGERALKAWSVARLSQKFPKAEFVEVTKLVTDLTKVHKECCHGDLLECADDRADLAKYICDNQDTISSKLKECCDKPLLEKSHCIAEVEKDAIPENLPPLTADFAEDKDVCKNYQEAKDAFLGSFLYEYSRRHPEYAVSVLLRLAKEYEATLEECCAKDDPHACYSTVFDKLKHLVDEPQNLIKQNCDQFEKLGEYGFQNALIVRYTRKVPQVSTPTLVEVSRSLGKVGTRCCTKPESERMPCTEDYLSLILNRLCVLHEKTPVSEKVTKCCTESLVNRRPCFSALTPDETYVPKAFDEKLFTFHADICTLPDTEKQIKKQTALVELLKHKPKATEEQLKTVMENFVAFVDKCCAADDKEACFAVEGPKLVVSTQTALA", "test": "RPA, competition: +free H3 peptide 1000 nM"}, "[5]": {"biological_target": "pRb-BSA 1x peptide-protein conjugate (bovine)", "sequence (P02769 25-607 limits assumed)": "as above", "test": "RPA, competition: +free H3 peptide 1000 nM"}, "[6]": {"biological_target": "ERK1 (p42) active (phospho), human, Active Motif 31 152 (human) (UniProt P27361)", "test": "RPA, competition: +free H3 peptide 10000 nM"}, "[7]": {"biological_target": "ERK1 (p44) active (GST tagged), human, Invitrogen PV 3311 (human) (UniProt P27361)", "test": "RPA, competition: +free H3 peptide 10000 nM"}, "[8]": {"biological_target": "ERK1 (p44) inactive (GST tagged), human, Invitrogen PV 3312 (human) (UniProt P27361)", "test": "RPA, competition: +free H3 peptide 10000 nM"}, "[9]": {"biological_target": "ERK1 (p44), human, Cell Signaling Technology 7416 (human) (UniProt P27361)", "test": "RPA, competition: +free H3 peptide 10000 nM"}, "[10]": {"biological_target": "ERK2 (p42), human, Biosource PHO 0104 (human) (UniProt P28482)", "sequence (P28482 2-360 limits assumed)": "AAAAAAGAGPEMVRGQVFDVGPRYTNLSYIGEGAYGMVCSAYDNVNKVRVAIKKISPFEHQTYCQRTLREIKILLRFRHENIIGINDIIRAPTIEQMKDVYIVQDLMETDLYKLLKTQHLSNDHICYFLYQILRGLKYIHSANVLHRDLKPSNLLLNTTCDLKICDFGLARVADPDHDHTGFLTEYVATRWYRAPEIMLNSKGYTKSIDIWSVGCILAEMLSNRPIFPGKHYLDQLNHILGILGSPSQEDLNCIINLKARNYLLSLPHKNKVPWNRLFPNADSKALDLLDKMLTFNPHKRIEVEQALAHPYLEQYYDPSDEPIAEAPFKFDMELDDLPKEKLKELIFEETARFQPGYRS", "test": "RPA, competition: +free H3 peptide 10000 nM"}, "[11]": {"biological_target": "Erk1-BSA 2.7x peptide-protein conjugate (human; bovine)", "sequence (peptide, as listed by the source limits assumed, chain 1 of 2)": "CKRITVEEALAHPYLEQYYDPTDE", "sequence (P02769 25-607 limits assumed, chain 2 of 2)": "as the sequence (P02769 25-607 limits assumed) above", "test": "RPA, competition: +free H3 peptide 10000 nM"}, "[12]": {"biological_target": "Histone H3 recombinant protein, calf, Roche 11 034 758 001 (calf) (UniProt P68432)", "test": "RPA, competition: +free H3 peptide 10000 nM"}, "[13]": {"biological_target": "Histone H3 recombinant protein, human, Upstate 14-494 (human) (UniProt P68431)", "test": "RPA, competition: +free H3 peptide 10000 nM"}, "[14]": {"biological_target": "Histone H3-BSA 2.7x peptide-protein conjugate (bovine)", "test": "RPA, competition: +free H3 peptide 10000 nM"}, "[15]": {"biological_target": "pErk1/2-BSA 2.7x peptide-protein conjugate (human; bovine)", "sequence (P02769 25-607 limits assumed)": "as above", "test": "RPA, competition: +free H3 peptide 10000 nM"}, "[16]": {"biological_target": "pRb recombinant protein, human, Active Motif 31 128 (human) (UniProt P06400)", "sequence (P06400 whole entry)": "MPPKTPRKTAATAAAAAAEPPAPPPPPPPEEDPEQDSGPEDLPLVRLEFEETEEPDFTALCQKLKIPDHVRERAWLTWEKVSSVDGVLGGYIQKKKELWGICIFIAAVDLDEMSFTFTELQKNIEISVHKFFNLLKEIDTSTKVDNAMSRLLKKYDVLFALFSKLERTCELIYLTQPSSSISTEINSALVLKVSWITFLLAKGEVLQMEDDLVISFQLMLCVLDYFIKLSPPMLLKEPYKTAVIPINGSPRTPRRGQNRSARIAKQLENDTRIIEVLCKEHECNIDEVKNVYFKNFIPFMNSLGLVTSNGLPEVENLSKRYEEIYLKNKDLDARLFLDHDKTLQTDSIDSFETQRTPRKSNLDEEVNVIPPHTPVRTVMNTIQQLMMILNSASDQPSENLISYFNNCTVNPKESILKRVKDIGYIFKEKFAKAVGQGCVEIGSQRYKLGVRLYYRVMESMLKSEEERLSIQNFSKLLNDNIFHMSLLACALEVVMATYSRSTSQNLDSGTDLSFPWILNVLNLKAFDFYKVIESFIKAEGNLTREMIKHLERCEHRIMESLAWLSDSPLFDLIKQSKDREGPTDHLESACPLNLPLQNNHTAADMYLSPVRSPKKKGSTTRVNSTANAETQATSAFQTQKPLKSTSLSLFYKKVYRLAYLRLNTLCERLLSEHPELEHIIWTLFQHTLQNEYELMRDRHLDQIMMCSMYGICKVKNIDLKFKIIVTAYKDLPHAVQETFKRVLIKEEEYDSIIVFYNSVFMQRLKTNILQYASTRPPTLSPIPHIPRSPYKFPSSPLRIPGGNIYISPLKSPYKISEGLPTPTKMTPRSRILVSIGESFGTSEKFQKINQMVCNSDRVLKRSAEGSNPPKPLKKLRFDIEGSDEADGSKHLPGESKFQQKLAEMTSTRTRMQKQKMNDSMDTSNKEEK", "test": "RPA, competition: +free H3 peptide 10000 nM"}, "[17]": {"biological_target": "pRb-BSA 1x peptide-protein conjugate (bovine)", "test": "RPA, competition: +free H3 peptide 10000 nM"}, "[18]": {"biological_target": "Histone H3-BSA 2.7x peptide-protein conjugate (bovine)", "test": "RPA standard curves, mean of duplicate assays"}, "[19]": {"biological_target": "Histone H3 recombinant protein, human, Upstate 14-494 (human) (UniProt P68431)", "test": "RPA standard curve, assay 2, LOD back-calculated from one-site fit"}, "[20]": {"biological_target": "Histone H3-BSA 2.7x peptide-protein conjugate (bovine)", "test": "RPA standard curve, assay 2, LOD back-calculated from one-site fit"}, "[21]": {"biological_target": "Erk1-BSA 2.7x peptide-protein conjugate (human; bovine)", "test": "RPA standard curves, mean of duplicate assays"}, "[22]": {"biological_target": "ERK1 (p44) inactive (GST tagged), human, Invitrogen PV 3312 (human) (UniProt P27361)", "test": "RPA standard curve, assay 2, LOD back-calculated from one-site fit"}, "[23]": {"biological_target": "Erk1-BSA 2.7x peptide-protein conjugate (human; bovine)", "test": "RPA standard curve, assay 2, LOD back-calculated from one-site fit"}, "[24]": {"biological_target": "pErk1/2-BSA 2.7x peptide-protein conjugate (human; bovine)", "test": "RPA, normal assay"}, "[25]": {"biological_target": "ERK1 (p42) active (phospho), human, Active Motif 31 152 (human) (UniProt P27361)", "test": "RPA, competition: +free pErk1/2 peptide 1000 nM"}, "[26]": {"biological_target": "ERK1 (p44) active (GST tagged), human, Invitrogen PV 3311 (human) (UniProt P27361)", "test": "RPA, competition: +free pErk1/2 peptide 1000 nM"}, "[27]": {"biological_target": "ERK1 (p44) inactive (GST tagged), human, Invitrogen PV 3312 (human) (UniProt P27361)", "test": "RPA, competition: +free pErk1/2 peptide 1000 nM"}, "[28]": {"biological_target": "ERK1 (p44), human, Cell Signaling Technology 7416 (human) (UniProt P27361)", "test": "RPA, competition: +free pErk1/2 peptide 1000 nM"}, "[29]": {"biological_target": "ERK2 (p42), human, Biosource PHO 0104 (human) (UniProt P28482)", "test": "RPA, competition: +free pErk1/2 peptide 1000 nM"}, "[30]": {"biological_target": "Erk1-BSA 2.7x peptide-protein conjugate (human; bovine)", "test": "RPA, competition: +free pErk1/2 peptide 1000 nM"}, "[31]": {"biological_target": "Histone H3 recombinant protein, calf, Roche 11 034 758 001 (calf) (UniProt P68432)", "test": "RPA, competition: +free pErk1/2 peptide 1000 nM"}, "[32]": {"biological_target": "Histone H3 recombinant protein, human, Upstate 14-494 (human) (UniProt P68431)", "test": "RPA, competition: +free pErk1/2 peptide 1000 nM"}, "[33]": {"biological_target": "Histone H3-BSA 2.7x peptide-protein conjugate (bovine)", "test": "RPA, competition: +free pErk1/2 peptide 1000 nM"}, "[34]": {"biological_target": "pErk1/2-BSA 2.7x peptide-protein conjugate (human; bovine)", "test": "RPA, competition: +free pErk1/2 peptide 1000 nM"}, "[35]": {"biological_target": "pRb recombinant protein, human, Active Motif 31 128 (human) (UniProt P06400)", "test": "RPA, competition: +free pErk1/2 peptide 1000 nM"}, "[36]": {"biological_target": "pRb-BSA 1x peptide-protein conjugate (bovine)", "test": "RPA, competition: +free pErk1/2 peptide 1000 nM"}, "[37]": {"biological_target": "pErk1/2-BSA 2.7x peptide-protein conjugate (human; bovine)", "test": "RPA standard curve, assay 2, LOD back-calculated from one-site fit"}}, "data": [{"substance": "Histone H3 antibody, Abcam ab1791", "values": [{"measurement": "maximum standard curve signal", "setting": "[1]", "result": "< 0.01", "unit": "RFI"}, {"measurement": "maximum standard curve signal", "setting": "[2]", "result": 0.01, "unit": "RFI"}, {"measurement": "maximum standard curve signal", "setting": "[3]", "result": 1.13, "unit": "RFI"}, {"measurement": "maximum standard curve signal", "setting": "[4]", "result": 1.41, "unit": "RFI"}, {"measurement": "maximum standard curve signal", "setting": "[5]", "result": "< 0.01", "unit": "RFI"}, {"measurement": "maximum standard curve signal", "setting": "[6]", "result": "< 0.01", "unit": "RFI"}, {"measurement": "maximum standard curve signal", "setting": "[7]", "result": "< 0.01", "unit": "RFI"}, {"measurement": "maximum standard curve signal", "setting": "[8]", "result": "< 0.01", "unit": "RFI"}, {"measurement": "maximum standard curve signal", "setting": "[9]", "result": "< 0.01", "unit": "RFI"}, {"measurement": "maximum standard curve signal", "setting": "[10]", "result": "< 0.01", "unit": "RFI"}, {"measurement": "maximum standard curve signal", "setting": "[11]", "result": 0.01, "unit": "RFI"}, {"measurement": "maximum standard curve signal", "setting": "[12]", "result": "< 0.01", "unit": "RFI"}, {"measurement": "maximum standard curve signal", "setting": "[13]", "result": 0.07, "unit": "RFI"}, {"measurement": "maximum standard curve signal", "setting": "[14]", "result": 0.19, "unit": "RFI"}, {"measurement": "maximum standard curve signal", "setting": "[15]", "result": 0.02, "unit": "RFI"}, {"measurement": "maximum standard curve signal", "setting": "[16]", "result": "< 0.01", "unit": "RFI"}, {"measurement": "maximum standard curve signal", "setting": "[17]", "result": "< 0.01", "unit": "RFI"}, {"measurement": "mean LOD", "setting": "[18]", "result": 0.123, "unit": "nM"}, {"measurement": "LOD", "setting": "[19]", "result": 0.178, "unit": "nM"}, {"measurement": "LOD", "setting": "[20]", "result": 0.141, "unit": "nM"}]}, {"substance": "p44/42 MAPK (Erk1/2) antibody, Biosource 44-654G", "values": [{"measurement": "mean LOD", "setting": "[21]", "result": 0.046, "unit": "nM"}, {"measurement": "LOD", "setting": "[22]", "result": 0.084, "unit": "nM"}, {"measurement": "LOD", "setting": "[23]", "result": 0.046, "unit": "nM"}]}, {"substance": "p44/42 MAPK phospho (pERK1/2) Thr202/Tyr204 antibody, Cell Signaling Technology #9101", "values": [{"measurement": "maximum standard curve signal", "setting": "[24]", "result": 3.47, "unit": "RFI"}, {"measurement": "maximum standard curve signal", "setting": "[25]", "result": 0.01, "unit": "RFI"}, {"measurement": "maximum standard curve signal", "setting": "[26]", "result": 0.01, "unit": "RFI"}, {"measurement": "maximum standard curve signal", "setting": "[27]", "result": 0.01, "unit": "RFI"}, {"measurement": "maximum standard curve signal", "setting": "[28]", "result": "< 0.01", "unit": "RFI"}, {"measurement": "maximum standard curve signal", "setting": "[29]", "result": 0.01, "unit": "RFI"}, {"measurement": "maximum standard curve signal", "setting": "[30]", "result": 0.02, "unit": "RFI"}, {"measurement": "maximum standard curve signal", "setting": "[31]", "result": 0.01, "unit": "RFI"}, {"measurement": "maximum standard curve signal", "setting": "[32]", "result": 0.01, "unit": "RFI"}, {"measurement": "maximum standard curve signal", "setting": "[33]", "result": 0.1, "unit": "RFI"}, {"measurement": "maximum standard curve signal", "setting": "[34]", "result": 0.1, "unit": "RFI"}, {"measurement": "maximum standard curve signal", "setting": "[35]", "result": 0.01, "unit": "RFI"}, {"measurement": "maximum standard curve signal", "setting": "[36]", "result": 0.01, "unit": "RFI"}, {"measurement": "LOD", "setting": "[37]", "result": 0.032, "unit": "nM"}]}]}
